Assay results from PMC4416226 (The FEBS journal, 2014).

Molecular target: T1, His-MyoD (1-320 aa) (UniProt P15172 1-320)
T1 sequence (looked up): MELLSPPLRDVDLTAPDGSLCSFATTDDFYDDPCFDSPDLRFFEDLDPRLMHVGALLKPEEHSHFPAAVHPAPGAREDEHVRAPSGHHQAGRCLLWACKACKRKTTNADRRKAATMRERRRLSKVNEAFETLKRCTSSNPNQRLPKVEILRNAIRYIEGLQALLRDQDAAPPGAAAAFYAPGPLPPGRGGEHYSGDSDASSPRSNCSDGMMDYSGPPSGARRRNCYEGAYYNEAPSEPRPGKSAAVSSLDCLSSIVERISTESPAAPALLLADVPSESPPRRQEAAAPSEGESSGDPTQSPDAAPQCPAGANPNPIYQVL
Test: far-Western, overlay or dot blot

B1: GST-MLP-a (1-194 aa) (natural protein, human, UniProt P50461-1 1-194, looked up)
chain: MPNWGGGAKCGACEKTVYHAEEIQCNGRSFHKTCFHCMACRKALDSTTVAAHESEIYCKVCYGRRYGPKGIGYGQGAGCLSTDTGEHLGLQFQQSPKPARSVTTSNPSKFTAKFGESEKCPRCGKSVYAAEKVMGGGKPWHKTCFRCAICGKSLESTNVTDKDGELYCKVCYAKNFGPTGIGFGGLTQQVEKKE
binding result: binds
